Legend:
[1] = molecular target: T1, BPTI-K15R/R17D (bovine, UniProt P00974 36-93); test: co-crystal structure, PDB 3P95
Method: The heterodimeric complexes were further purified by HiLoad Superdex 75 gel filtration chromatography (GE Healthcare), exchanged into 10 mM Na acetate, pH 6.5, and concentrated to ˜3 mg/mL. […] Drops (4 μL) were prepared by mixing equal volumes of protein and reservoir solutions.

[2] = molecular target: T2, BPTI-K15R/R17G (bovine, UniProt P00974 36-93); test: co-crystal structure, PDB 3P92
[3] = molecular target: BPTI-K15R (bovine, UniProt P00974 36-93); test: 1/Ki from competitive inhibition
[4] = molecular target: BPTI-K15R/R17M (bovine, UniProt P00974 36-93); test: 1/Ki from competitive inhibition
[5] = molecular target: bovine pancreatic trypsin inhibitor, wild type (bovine, UniProt P00974 36-93); test: 1/Ki from competitive inhibition
[6] = molecular target: T2, BPTI-K15R/R17G; test: 1/Ki from competitive inhibition
[7] = molecular target: T1, BPTI-K15R/R17D; test: 1/Ki from competitive inhibition
[8] = molecular target: BPTI-R17M (bovine, UniProt P00974 36-93); test: 1/Ki from competitive inhibition
[9] = molecular target: T2, BPTI-K15R/R17G; test: slow tight-binding inhibition kinetics
Method: Reactions were run at 25° C., and were followed spectroscopically for 16 hours so that reliable steady-state rates could be obtained.

B1: catalytically inactive mesotrypsin-S195A (enzyme)
chain: IVGGYTCEENSLPYQVSLNSGSHFCGGSLISEQWVVSAAHCYKTRIQVRLGEHNIKVLEGNEQFINAAKIIRHPKYNRDTLDNDIMLIKLSSPAVINARVSTISLPTAPPAAGTECLISGWGNTLSFGADYPDELKCLDAPVLTQAECKASYPGKITNSMFCVGFLEGGKDSCQRDAGGPVVCNGQLQGVVSWGHGCAWKNRPGVYTKVYNYVDWIKDTIAANS
notes: Used for the co-crystal structures; also called S195A mutant
binding result [1]: binds
binding result [2]: binds

B2: recombinant human mesotrypsin (enzyme)
chain: IVGGYTCEENSLPYQVSLNSGSHFCGGSLISEQWVVSAAHCYKTRIQVRLGEHNIKVLEGNEQFINAAKIIRHPKYNRDTLDNDIMLIKLSSPAVINARVSTISLPTAPPAAGTECLISGWGNTLSFGADYPDELKCLDAPVLTQAECKASYPGKITNSMFCVGFLEGGKDSCQRDSGGPVVCNGQLQGVVSWGHGCAWKNRPGVYTKVYNYVDWIKDTIAANS
notes: also called PRSS3
Ka [3]: 417000 M⁻¹
Ka [4]: 4.76e+06 M⁻¹
Ka [5]: 74100 M⁻¹
Ka [6]: 9.3e+07 M⁻¹
Ka [7]: 667000 M⁻¹
Ka [8]: 1.32e+06 M⁻¹

B3: recombinant human anionic trypsin (enzyme, UniProt P07478 24-247, looked up)
chain: IVGGYICEENSVPYQVSLNSGYHFCGGSLISEQWVVSAGHCYKSRIQVRLGEHNIEVLEGNEQFINAAKIIRHPKYNSRTLDNDILLIKLSSPAVINSRVSAISLPTAPPAAGTESLISGWGNTLSSGADYPDELQCLDAPVLSQAECEASYPGKITNNMFCVGFLEGGKDSCQGDSGGPVVSNGELQGIVSWGYGCAQKNRPGVYTKVYNYVDWIKDTIAANS
notes: mature
binding result [9]: binds

— US20120094923A1 (published 2012)
